Values of other authors as cited in publication PMC12023029.

Target: His50 (UniProt position 50, KEGVVHGVATV)
Assay: NMR (per title of cited reference 59)
Details: free monomer, disordered

**Q.** For “alpha-synuclein (aSyn) (Homo sapiens (inferred; the article does not name the species and discusses Parkinson's disease patients))”, which pKa (150 mM salt, high salt) is on record?
**A.** 6.5

**Q.** What about the pKa (low salt, article gives '4' mM as the lower end of the salt change) of the same substance?
**A.** 6.8
